The target of assay [1] is T1, MPER peptide PDT-081 (HIV-1, biotin at the C-terminus).
T1 chain: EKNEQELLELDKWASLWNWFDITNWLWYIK
Nature of the assay: ELISA. For orientation: ELISA stands for enzyme-linked immunosorbent assay.

In assay [2] the target is T1, MPER peptide PDT-081. Nature of the assay: BLI. For orientation: Biolayer interferometry detects binding as a change in optical thickness at a sensor tip.

B1: PGZL1.H4K3 IgG (antibody, V domains shown)
VH: KVQLVQSGAELKKPWSSVRVSCKASGGSFSSYAFNWVRQAPGQRLEWLGGIVPLVSSTNYAQRFRGRVTISADRSTSTVYLEMTGLTSADTAVYFCAREGEGWFGRPLRAFEFWGQGTLVTVST
VL: EIVLTQSPGTFALSPGERATLSCRASQSVSGGALAWYQQKAGQAPRLLIYGTSGRATGVPGRFSGSGSETDFSLTISRLEPEDFAVYYCQQYGTSQSTFGQGTRLETR
B1: in the assay with MPER peptide PDT-081 [1], it took 0.039 µg/mL to reach a half-maximal effect (EC50).

B2: H4K3_RS73PE Fab (Fab, V domains shown)
VH: KVQLVQSGAELKKPWSSVRVSCKASGGSFSSYAFNWVRQAPGQRLEWLGGIVPLVSSTNYAQRFRGRVTISADPETSTVYLEMTGLTSADTAVYFCAREGEGWFGRPLRAFEFWGQGTLVTVST
VL: EIVLTQSPGTFALSPGERATLSCRASQSVSGGALAWYQQKAGQAPRLLIYDTSGRATGVPGRFSGSGSETDFSLTISRLEPEDFAVYYCQQYGTSQSTFGQGTRLETR
Turning to B2, in the assay with MPER peptide PDT-081 [2], the koff (commonly the first-order rate constant of dissociation) stood at 0.00051 s⁻¹.

B3: H4K3_SFS28EPE Fab (Fab, V domains shown)
VH: KVQLVQSGAELKKPWSSVRVSCKASGGEPESYAFNWVRQAPGQRLEWLGGIVPLVSSTNYAQRFRGRVTISADRSTSTVYLEMTGLTSADTAVYFCAREGEGWFGRPLRAFEFWGQGTLVTVST
VL: EIVLTQSPGTFALSPGERATLSCRASQSVSGGALAWYQQKAGQAPRLLIYDTSGRATGVPGRFSGSGSETDFSLTISRLEPEDFAVYYCQQYGTSQSTFGQGTRLETR
In the assay with MPER peptide PDT-081 [2], B3 had a koff of 0.00054 s⁻¹.

B4: H4K3_5M Fab (Fab, V domains shown)
VH: KVQLVQSGAELKKPWSSVRVSCKASGGEPESYAFNWVRQAPGQRLEWLGGIVPLVSSTNYAQRFRGRVTISADPETSTVYLEMTGLTSADTAVYFCAREGEGWFGRPLRAFEFWGQGTLVTVST
VL: EIVLTQSPGTFALSPGERATLSCRASQSVSGGALAWYQQKAGQAPRLLIYDTSGRATGVPGRFSGSGSETDFSLTISRLEPEDFAVYYCQQYGTSQSTFGQGTRLETR
As for B4, the koff with MPER peptide PDT-081 [2] stood at 0.00067 s⁻¹.

B5: H4K3_RS73PE IgG (antibody, V domains shown)
VH: KVQLVQSGAELKKPWSSVRVSCKASGGSFSSYAFNWVRQAPGQRLEWLGGIVPLVSSTNYAQRFRGRVTISADPETSTVYLEMTGLTSADTAVYFCAREGEGWFGRPLRAFEFWGQGTLVTVST
VL: EIVLTQSPGTFALSPGERATLSCRASQSVSGGALAWYQQKAGQAPRLLIYDTSGRATGVPGRFSGSGSETDFSLTISRLEPEDFAVYYCQQYGTSQSTFGQGTRLETR
In the case of B5, the EC50 (as a rule, the midpoint of the concentration-response curve) with MPER peptide PDT-081 [1] was 0.09 µg/mL.

B6: H4K3_5M IgG (antibody, V domains shown)
VH: KVQLVQSGAELKKPWSSVRVSCKASGGEPESYAFNWVRQAPGQRLEWLGGIVPLVSSTNYAQRFRGRVTISADPETSTVYLEMTGLTSADTAVYFCAREGEGWFGRPLRAFEFWGQGTLVTVST
VL: EIVLTQSPGTFALSPGERATLSCRASQSVSGGALAWYQQKAGQAPRLLIYDTSGRATGVPGRFSGSGSETDFSLTISRLEPEDFAVYYCQQYGTSQSTFGQGTRLETR
As to B6, the EC50 with MPER peptide PDT-081 [1] came to 0.083 µg/mL. This EC50 and that of the molecule before are within 1.5-fold of each other.

B7: H4K3_SFS28EPE IgG (antibody, V domains shown)
VH: KVQLVQSGAELKKPWSSVRVSCKASGGEPESYAFNWVRQAPGQRLEWLGGIVPLVSSTNYAQRFRGRVTISADRSTSTVYLEMTGLTSADTAVYFCAREGEGWFGRPLRAFEFWGQGTLVTVST
VL: EIVLTQSPGTFALSPGERATLSCRASQSVSGGALAWYQQKAGQAPRLLIYDTSGRATGVPGRFSGSGSETDFSLTISRLEPEDFAVYYCQQYGTSQSTFGQGTRLETR
In the case of B7, the midpoint of the response with MPER peptide PDT-081 [1], the EC50, lay at 0.076 µg/mL.

The values are drawn from publication PMC6879610 (2019).
